Experiments:
[1] = target: CD22 (human) (UniProt P20273); assay: flow cytometry on peripheral blood blasts at inclusion
[2] = target: CD22 (human) (UniProt P20273); assay: flow cytometry, normal BM B cells at day 90 post-RAIT (FIG. 1B)
[3] = target: CD22 (human) (UniProt P20273); assay: flow cytometry on blasts after elimination of epratuzumab from the surface
[4] = target: CD22 (human) (UniProt P20273); assay: flow cytometry on BM blasts of a patient who had received epratuzumab (epratuzumab on the cells)
[5] = target: CD22 (human) (UniProt P20273); assay: flow cytometry on residual blasts of one non-responder after RAIT
[6] = target: CD22 (human) (UniProt P20273); assay: flow cytometry on residual blasts of three non-responders after RAIT (epratuzumab on the cells)
[7] = target: CD22 (human) (UniProt P20273); assay: flow cytometry on bone marrow blasts at inclusion
[8] = target: CD22 (human) (UniProt P20273); assay: flow cytometry on residual blasts of four non-responders after RAIT
[9] = target: CD22 (human) (UniProt P20273); assay: flow cytometry, BM blasts at day 15 post-RAIT (FIG. 1A)
[10] = target: CD22 (human) (UniProt P20273); assay: flow cytometry, normal BM B cells at day 180 post-RAIT (FIG. 1B), epratuzumab gone from the surface

median % of CD22-SHCL-1 expression (peripheral blasts) [1]: 100%
% CD22 SHCL-1 expression (normal BM B cells) [2]: 100%
% labeling of blasts [3]: 100%
% of SHCL-1+ blasts [4]: 100%
% positivity of residual blasts [5]: 84%
% positivity of residual blasts [6]: 100%
median % of CD22-SHCL-1 expression (bone marrow blasts) [7]: 100%
% positivity of residual blasts [8]: 100%
% CD22 SHCL-1 blast expression [9]: 100%
% positive (normal BM B cells) [10]: 100%
Substance: SHCL-1 (anti-CD22 antibody clone, PE or PerCp-Cy5.5 conjugated, BD Biosciences)
